Common to all, as to conditions: remark: other sources report otherwise
The target of assay [1] is T1, Human heat shock transcription factor 1 (Hsf1), wild type (human), Q00613.
T1 chain: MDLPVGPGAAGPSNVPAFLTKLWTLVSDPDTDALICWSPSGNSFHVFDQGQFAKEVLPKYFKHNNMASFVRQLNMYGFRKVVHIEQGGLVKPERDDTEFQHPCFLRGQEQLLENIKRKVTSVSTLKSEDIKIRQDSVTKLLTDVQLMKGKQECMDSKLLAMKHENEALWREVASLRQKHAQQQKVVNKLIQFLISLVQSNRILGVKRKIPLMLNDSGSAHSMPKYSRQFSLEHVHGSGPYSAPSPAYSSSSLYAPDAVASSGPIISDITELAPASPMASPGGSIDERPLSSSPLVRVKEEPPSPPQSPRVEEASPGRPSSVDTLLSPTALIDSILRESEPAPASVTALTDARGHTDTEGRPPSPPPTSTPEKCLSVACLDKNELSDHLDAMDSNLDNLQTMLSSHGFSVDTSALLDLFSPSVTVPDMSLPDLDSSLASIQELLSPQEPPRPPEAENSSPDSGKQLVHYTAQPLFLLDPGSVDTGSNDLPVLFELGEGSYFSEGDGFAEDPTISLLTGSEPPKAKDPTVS
Description: SEC + native gel or EMSA; trimer-to-monomer ratio of freshly purified Hsf1 in the absence of heat shock, by gel filtration (Superdex 200) and BN-PAGE.

Assay [2] deals with T1, Human heat shock transcription factor 1 …. The assay is described as follows: native gel or EMSA; blue-native PAGE (8% gel, on ice) of purified Hsf1 wild type or variants, also after 10 min at 4–42°C (5 μM protein); Coomassie stain or immunoblot with Hsf1 antiserum. (In general: In EMSA bound probe runs differently from free probe, usually more slowly.)
Assay [3] addresses T2, Hsf1 wild type expressed from pIRES‐HSF1_hrGFP in cells (human), Q00613.
T2 chain: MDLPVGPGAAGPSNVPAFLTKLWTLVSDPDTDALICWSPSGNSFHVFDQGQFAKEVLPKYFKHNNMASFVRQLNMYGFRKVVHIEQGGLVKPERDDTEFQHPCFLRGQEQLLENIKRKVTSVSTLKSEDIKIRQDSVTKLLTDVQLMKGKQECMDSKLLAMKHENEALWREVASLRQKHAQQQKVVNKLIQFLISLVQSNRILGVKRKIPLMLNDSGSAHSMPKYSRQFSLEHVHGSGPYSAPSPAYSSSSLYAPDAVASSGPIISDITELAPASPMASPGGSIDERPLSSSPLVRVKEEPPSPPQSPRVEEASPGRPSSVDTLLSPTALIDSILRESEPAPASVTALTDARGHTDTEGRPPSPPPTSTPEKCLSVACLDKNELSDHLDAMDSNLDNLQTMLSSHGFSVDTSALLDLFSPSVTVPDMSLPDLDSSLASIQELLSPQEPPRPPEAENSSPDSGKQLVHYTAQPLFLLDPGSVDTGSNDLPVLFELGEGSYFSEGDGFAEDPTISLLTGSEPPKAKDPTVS
The assay is described as follows: native gel or EMSA; blue-native PAGE of lysates (15 μg total protein) of transfected HSF1−/− MEFs, immunoblot with Hsf1 antiserum.

B1: Human heat shock transcription factor 1 (Hsf1), wild type, Q00613 1-529 (natural protein)
chain: MDLPVGPGAAGPSNVPAFLTKLWTLVSDPDTDALICWSPSGNSFHVFDQGQFAKEVLPKYFKHNNMASFVRQLNMYGFRKVVHIEQGGLVKPERDDTEFQHPCFLRGQEQLLENIKRKVTSVSTLKSEDIKIRQDSVTKLLTDVQLMKGKQECMDSKLLAMKHENEALWREVASLRQKHAQQQKVVNKLIQFLISLVQSNRILGVKRKIPLMLNDSGSAHSMPKYSRQFSLEHVHGSGPYSAPSPAYSSSSLYAPDAVASSGPIISDITELAPASPMASPGGSIDERPLSSSPLVRVKEEPPSPPQSPRVEEASPGRPSSVDTLLSPTALIDSILRESEPAPASVTALTDARGHTDTEGRPPSPPPTSTPEKCLSVACLDKNELSDHLDAMDSNLDNLQTMLSSHGFSVDTSALLDLFSPSVTVPDMSLPDLDSSLASIQELLSPQEPPRPPEAENSSPDSGKQLVHYTAQPLFLLDPGSVDTGSNDLPVLFELGEGSYFSEGDGFAEDPTISLLTGSEPPKAKDPTVS
Broadly, the stoichiometry N is the number of molecules, sites or subunits per partner or assembly. For B1, the stoichiometry N in assay [1] and in assay [2] was 3 throughout.

B2: Hsf1 wild type expressed from pIRES‐HSF1_hrGFP in cells, Q00613 1-529 (natural protein)
chain: MDLPVGPGAAGPSNVPAFLTKLWTLVSDPDTDALICWSPSGNSFHVFDQGQFAKEVLPKYFKHNNMASFVRQLNMYGFRKVVHIEQGGLVKPERDDTEFQHPCFLRGQEQLLENIKRKVTSVSTLKSEDIKIRQDSVTKLLTDVQLMKGKQECMDSKLLAMKHENEALWREVASLRQKHAQQQKVVNKLIQFLISLVQSNRILGVKRKIPLMLNDSGSAHSMPKYSRQFSLEHVHGSGPYSAPSPAYSSSSLYAPDAVASSGPIISDITELAPASPMASPGGSIDERPLSSSPLVRVKEEPPSPPQSPRVEEASPGRPSSVDTLLSPTALIDSILRESEPAPASVTALTDARGHTDTEGRPPSPPPTSTPEKCLSVACLDKNELSDHLDAMDSNLDNLQTMLSSHGFSVDTSALLDLFSPSVTVPDMSLPDLDSSLASIQELLSPQEPPRPPEAENSSPDSGKQLVHYTAQPLFLLDPGSVDTGSNDLPVLFELGEGSYFSEGDGFAEDPTISLLTGSEPPKAKDPTVS
The molecule B2 gave a stoichiometry N in assay [3] of 3.

(Values after article PMC7360973.)
